Four molecules from publication PMC12622518 (Advanced Science, 2025) can be followed below.

One data set deals with T1, YnfM (Escherichia coli, UniProt P43531).
T1 construct: native MFS exporter in living E. coli BL21(DE3) cells; ynfM knockout comparison with Glusor read-out
T1 sequence (P43531 1-417): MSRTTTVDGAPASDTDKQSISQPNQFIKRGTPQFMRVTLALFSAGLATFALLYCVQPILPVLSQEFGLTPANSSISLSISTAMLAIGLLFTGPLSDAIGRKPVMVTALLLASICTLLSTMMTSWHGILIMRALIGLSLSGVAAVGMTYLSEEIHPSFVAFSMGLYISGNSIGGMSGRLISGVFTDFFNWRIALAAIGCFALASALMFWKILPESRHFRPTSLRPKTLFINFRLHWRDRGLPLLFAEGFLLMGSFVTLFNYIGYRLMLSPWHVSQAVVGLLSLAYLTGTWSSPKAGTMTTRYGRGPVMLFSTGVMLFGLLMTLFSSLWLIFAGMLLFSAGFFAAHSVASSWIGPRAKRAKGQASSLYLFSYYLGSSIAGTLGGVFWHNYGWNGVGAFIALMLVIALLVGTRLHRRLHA
Put plainly: efflux in knockout versus parent E. coli, intra- and extracellular Glusor fluorescence. Format: cell-based. The settings on record: carbon starvation, 30 °C.

Another data set has as its target T2, CsiR (Pseudomonas putida, UniProt Q88IU1).
T2 construct: full-length, His6-tagged, purified from E. coli BL21(DE3) (pETDuet-CsiR); dimer
T2 sequence (Q88IU1 1-231): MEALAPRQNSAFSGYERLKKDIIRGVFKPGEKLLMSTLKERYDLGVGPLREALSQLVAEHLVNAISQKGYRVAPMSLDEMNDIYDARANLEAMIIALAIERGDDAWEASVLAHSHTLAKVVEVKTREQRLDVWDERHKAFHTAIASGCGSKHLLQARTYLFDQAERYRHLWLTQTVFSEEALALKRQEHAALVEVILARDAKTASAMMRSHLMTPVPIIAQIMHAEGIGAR
Kind of data set: fluorescence-based thermal shift (SYPRO Orange). The data set is classed as binding. Particulars: 100 µM ligand; 20 mM sodium phosphate, 150 mM NaCl, pH 7.4.

Data set [1] deals with ligand-binding domain of CsiR (CsiR-LBD) (P. putida KT2440). Put plainly: SEC; gel filtration on Superdex 200 10/300 GL, 50 mM sodium phosphate buffer pH 7.2, 150 mM NaCl; mass standards aprotinin, ovalbumin, conalbumin, aldolase, ferritin.
Data set [2] deals with the molecule itself. Described as above.

On to `O=C(O)CCCC(=O)O` [glutarate], for which, on YnfM, the “efflux in knockout versus parent E. coli, intra- and extracellular Glusor fluore” value is “YnfM may be the only functional glutarate exporter in E. coli BL21(DE3)”. Also, the ΔTm result on CsiR is reported as “only glutarate induced a significant increase in the melting temperature (Tm) of CsiR”.

Regarding “ligand-binding domain of CsiR (CsiR-LBD) (domain or fragment)”, the stoichiometry N in data set [1] was 2.

B1: genetically encoded glutarate fluorescent biosensor Glusor (other)
chain: LDEMNDIYDARANLEAMIIALAIERGDDAWEASVLAHSHTLAKVVEVKTREQRLDVWDERHKAFHTAIASGCGSKHLLQARTYLFDQAERYRHLWLTQTVFSEEALALKRQEHAALVEVILARDAKTASAMMRSHLMTPVPIIAQIMHAEGIGAR
B1: in data set [2], the “stoichiometry N” value is 2.

B2: GntR family transcriptional regulator CsiR (natural protein, P. putida KT2440, UniProt Q88IU1 1-231, looked up)
chain: MEALAPRQNSAFSGYERLKKDIIRGVFKPGEKLLMSTLKERYDLGVGPLREALSQLVAEHLVNAISQKGYRVAPMSLDEMNDIYDARANLEAMIIALAIERGDDAWEASVLAHSHTLAKVVEVKTREQRLDVWDERHKAFHTAIASGCGSKHLLQARTYLFDQAERYRHLWLTQTVFSEEALALKRQEHAALVEVILARDAKTASAMMRSHLMTPVPIIAQIMHAEGIGAR
notes: CsiR, GntR family transcriptional regulator of the csiD-lhgO operon, Pseudomonas putida KT2440; csiR gene cloned into pETDuet-1 (pETDuet-CsiR); also called His6-tagged CsiR
As to B2, the “stoichiometry N” value in data set [2] is 2.
